Article PMC3322389 (Structure(London, England:1993), 2012)

Target: the molecule itself
Assay: AUC

B1: Aureochrome1 LOV domain (AuLOV), residues 176-337 of V. frigida Aureochrome1 (domain or fragment, UniProt A8QW55 176-337, looked up)
chain: DSLIAQCSPEADTLLTDNPSKANRILEDPDYSLVKALQMAQQNFVITDASLPDNPIVYASRGFLTLTGYSLDQILGRNCRFLQGPETDPRAVDKIRNAITKGVDTSVCLLNYRQDGTTFWNLFFVAGLRDSKGNIVNYVGVQSKVSEDYAKLLVNEQNIEYK
- stoichiometry N: 2
